Assay results published in patent publication US12398179.

Target: EphA2 extracellular domain fused to the Fc portion of an antibody (EphA2 Fc)
Assay: ELISA, inhibition of ephrin-A5 AP binding to immobilized EphA2 Fc; representative experiment; concentrations in nM

Chain of EphA2 extracellular domain fused to the Fc portion of an antibody (EphA2 Fc) (P29317 whole entry, the tested form may be a part): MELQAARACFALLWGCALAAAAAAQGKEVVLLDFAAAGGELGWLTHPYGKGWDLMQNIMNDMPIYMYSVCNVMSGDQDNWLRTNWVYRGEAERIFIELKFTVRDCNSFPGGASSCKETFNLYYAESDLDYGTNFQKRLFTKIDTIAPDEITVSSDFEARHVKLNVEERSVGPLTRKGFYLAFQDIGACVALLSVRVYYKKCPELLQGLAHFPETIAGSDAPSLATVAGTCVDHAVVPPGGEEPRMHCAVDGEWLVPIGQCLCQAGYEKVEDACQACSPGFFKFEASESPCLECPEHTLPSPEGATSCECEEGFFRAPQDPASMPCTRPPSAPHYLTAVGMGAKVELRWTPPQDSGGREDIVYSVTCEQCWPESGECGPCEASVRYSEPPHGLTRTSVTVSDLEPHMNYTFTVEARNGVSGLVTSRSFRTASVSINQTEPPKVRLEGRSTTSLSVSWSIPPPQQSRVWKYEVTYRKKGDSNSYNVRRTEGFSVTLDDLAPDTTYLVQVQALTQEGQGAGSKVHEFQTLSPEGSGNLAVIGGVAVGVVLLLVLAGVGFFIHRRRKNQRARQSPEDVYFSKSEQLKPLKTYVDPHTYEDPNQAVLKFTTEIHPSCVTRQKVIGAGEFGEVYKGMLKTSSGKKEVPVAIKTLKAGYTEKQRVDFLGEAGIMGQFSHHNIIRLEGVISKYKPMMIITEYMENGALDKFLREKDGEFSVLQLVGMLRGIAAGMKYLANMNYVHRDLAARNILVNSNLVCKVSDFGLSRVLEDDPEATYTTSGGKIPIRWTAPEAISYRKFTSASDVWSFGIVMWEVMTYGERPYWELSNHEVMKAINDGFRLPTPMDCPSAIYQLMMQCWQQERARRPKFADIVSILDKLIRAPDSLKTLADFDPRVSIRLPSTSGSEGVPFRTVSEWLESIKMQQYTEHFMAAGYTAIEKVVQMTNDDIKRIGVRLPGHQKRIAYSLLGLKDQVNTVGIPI

Row | IC50 [µM] | Substance
1 | 3.5 | YSA1-10am (peptide)
2 | 2.8 | YSA-K-bio (peptide)
